Data set [1] concerns HT-29 colorectal cancer cells. Nature of the data set: Viability / cytotoxicity assay on HT-29 colorectal cancer cells. The data set is classed as cell-based, human. Conditions: in vitro.
Data set [2] relates to Brainbow (BB) mice fed a high-fat (HF) diet. The experiment in a line: Study 5: recombinant EFNA5 injected into iAb fat of Brainbow mice fed a HF diet. It counts as in vivo, mouse. On the procedure:
Brainbow (BB) B6.Cg-Tg(Thy1-Brainbow1.0)HLich/J mice were purchased from The Jackson Laboratory (n=7, females). 5-week old BB mice were fed a HF for 140 days. Then mice were randomly assigned into groups injected with PBS (n=3) and recombinant EFNA5 (n=4). Mice were individually housed for all treatment periods. Mice were injected into both iAb fat depots with 100 μL PBS/iAb depot or with PBS containing recombinant EFNA5 (Life Technologies, 45 ng/mL) every other day for 1 month. Metabolic measurements were performed. WAT were collected for protein, mRNA, and histology.
Metabolic parameters were measured by indirect calorimetry (CLAMS, Columbus Instruments, Columbus, OH) at ambient temperature (22° C.) with 12 h light/dark cycles. Animals were fed the same HF diet and water was provided ad libitum. Mice were placed individually and allowed to acclimatize in the chambers for 12 h. Oxygen consumption, CO2 production, energy expenditure, and locomotor activity were measured for at least 24 h. […] For cold exposure the temperature was changed to 4° C. for 6 h.
Cell/tissue protein lysates normalized by protein content (BCA, ThermoFisher). Medium was collected from cells plated at similar numbers. Protein lysate or medium were separated on 10% acrylamide gel under reducing conditions. After transfer to a polyvinylidene fluoride membrane (Immobilon-P; Millipore), proteins were analyzed using an Odyssey Infrared Imaging System (LI-COR Biosciences). Peripherin and tyrosine hydroxylase polyclonal rabbit antibodies (Abcam, Cambridge, MA) were used at 1:1000 dilution.

Another data set relates to DRG neurons. Nature of the data set: Neurite outgrowth of DRG neurons (ArrayScan XTI, Neuronal Profiling algorithm). It counts as cell-based, mouse. To be noted: recombinant EFNA5 30 ng/mL, 24 hours. On the procedure: Single cell suspensions from cervical, thoracic, and lumbar DRG neurons were isolated from terminally anesthetized C57BL/6 adult female mice (12-16 weeks old, The Jackson Laboratory). Dissected DRGs were enzymatically digested in a solution of collagenase type 2 (200 U/mL; Sigma, St. Louis, MO) and dispase I (5 U/mL; Sigma) on a shaker for 45 min at 37° C. (Davies et al., 1999). Enzyme solution was aspirated and cells were washed twice in Hank's Balanced Salt Solution 1× (HBSS; Mediatech Inc., Manassas, VA) before incubating in DNase I type II (5 mg/mL; Worthington Biochemical, Lakewood, NJ) for 5 min at room temperature. […] The neuron-enriched pellet was resuspended in DRG culture medium (DMEM/F12, 1% N2 supplement, and 0.05% Gentamicin) and live cells were counted on a hemocytometer using trypan blue exclusion. […] Cells were automatically imaged using a Thermo Scientific™ ArrayScan™ XTI Live High Content microscope and analyzed with the Neuronal Profiling algorithm (ThermoFisher) (Lerch et al., 2014). Total neurite length, average neurite length, number of branch points, critical value, dendrite maximum, and ramification index were averaged across all neurons detected per well, with 3 wells included per treatment. […] Dendrite maximum and critical value are parameters determined based on Scholl analysis, and are automatically generated by the software. […]

A further data set has as its system 3T3-L1 adipocytes. The experiment in a line: Thermogenic gene expression in 3T3-L1 adipocytes (TaqMan / RT-PCR). The data set is classed as cell-based, mouse. To be noted: recombinant EFNA5 10 ng/mL, 4 days. On the procedure: FIGS. 9A to 9D show DRG neurons (500 neurons per well) cultured in DRG culture medium only, or DRG culture medium with NT-3 (1 ng/mL), with NGF (10 ng/mL), with WT secretome (1/1, v/v), or with Aldh1a1^−/− secretome (1/1, v/v) for 24 hours. WT and Aldh1a1^−/− adipocytes differentiated for 5 days. Secretome is the media collected from these cells for 24 h. Neurite outgrowth parameters were assayed using the Thermo Scientific™ ArrayScan™ XTI Live High Content microscope and analyzed with the Neuronal Profiling Algorithm (ThermoFisher). Nine independent experiments were performed using DRG from three mice. Each DRG batch was analyzed in triplicate. Data are shown as mean±SD obtained with one DRG batch. Asterisks indicate P<0.05 between different groups; Mann-Whitney U test. FIG. 9A: Representative images show ~25% of area used for the automatic quantification of neuronal parameters in FIG. 3 per one condition. […] FIG. 9B: Secreted EFNA5 levels in the medium from 3T3-L1 preadipocytes and adipocytes differentiated for 4d were analyzed by ELISA. FIG. 9C: Basal metabolic rate (heat) was measured in PBS- and EFNA5-injected mice from Table 1, Study 4 by an open circuit indirect calorimetry treadmill. […] Expression was measured by RT-PCR and normalized by 18S.
FIGS. 11A to 11I show adipokine Ereg is bilaterally associated with obesity and thermogenesis and activates PPARα. […] FIG. 11B: Ereg expression was measured in non-differentiated and differentiated (day 5) 3T3-L1 adipocytes (Mann-Whitney test) using a customized NanoString mouse panel. FIG. 11C: Ereg expression was measured in differentiated (day 5) 3T3-L1 and Aldh1a1^−/− adipocytes by Taqman and normalized to TATA box protein (TBP). FIG. 11D: Plasma EREG concentrations were measured in mice from Study 1 by western blot. […] FIG. 11E: Plasma EREG concentrations were measured and quantified in iAb of WT and ob/ob mice from Study 2 by western blot (n=5 per each group). […] FIG. 11F: EREG was measured in iAb, subcutaneous and brown fat by western blot. […] Expression level were measured by Taqman and normalized by TBP. […]
(In qPCR the cycle at which signal appears reflects the starting amount.)

Setting [3] is: Study 5, BB mice, HF diet, EA5 vs PBS.

Residues, ends and D or L forms follow the SMILES beside them. *: point of attachment. Fmoc = O=C(OCC1c2ccccc2-c2ccccc21)*; Bz = O=C(c1ccccc1)*

The source of these data is patent publication US12697366B2, “Thermogenic compositions and methods” (Ohio State Innovation Foundation, priority 2016, dated 2026).

Take `NCCCC[C@H](NC(=O)OCC1c2ccccc2-c2ccccc21)C(=O)N[C@@H](Cc1ccccc1)C(=O)N[C@@H](CCCCN)C(=O)N[C@@H](CCCCNC(=O)c1ccccc1)C(N)=O` [Fmoc-KFKK(Bz)-NH2] (Fmoc-KFKK(Bz)-NH2): the “cytotoxic efficacy against human colorectal cell line” value in data set [1] is on record as “no efficacy”.

B1: EFNA5: recombinant ephrin-A5 ligand protein (protein)
chain: QDPGSKVVADRYAVYWNSSNPRFQRGDYHIDVCINDYLDVFCPHYEDSVPEDKTERYVLYMVNFDGYSACDHTSKGFKRWECNRPHSPNGPLKFSEKFQLFTPFSLGFEFRPGREYFYISSAIPDNGRRSCLKLKVFVRPTNSCMKTIGVHDRVFDVNDKVENSLEPADDTVHESAEPSRGEN
Regarding B1, the “metabolic rate on cold exposure” value in data set [2] (EFNA5- vs. PBS-injected mice, 4° C.) is recorded as “increased”. The “tyrosine hydroxylase protein levels in WAT” value in data set [2] (EFNA5 vs. PBS, after 2 weeks of treatment, Western blot) is “increased”. Further, in data set [2] (setting [3]), the “Body Wt.” value came to 28.7 ± 3.2 g, the “Brown Fat” value is listed as 0.1 ± 0.03 g, the “Sub Fat” value was found to be 1.0 ± 0.4 g and the “iAb Fat” value was found to be 1.2 ± 0.5 g. In the data set with DRG neurons, the “dendritic maximum and critical value in neurons” value was “increased”. The “regulation of expression of thermogenic genes (Ucp1)” value in the data set with 3T3-L1 adipocytes is listed as “no direct effect”.
